Assay results reported in patent publication US10064928B2, “Peptides and combination of peptides for use in immunotherapy against CLL and other cancers” (IMMATICS BIOTECHNOLOGIES GMBH, priority 2015, dated 2018).

Target: HLA-A*02:01 (Homo sapiens, UniProt P04439, D140Y/D185E/D98H/E176V/E277Q/G131W/G231S/I119V/I121R/I166T/I218V/L300P/L318F/N151K/N90K/P208A/P217A/Q86G/Q94H/R138H/R169H/T345S)
Experiment: MHC binding assay (UV-ligand exchange, beta2m ELISA)
Conditions: binding of HLA-class I restricted peptides to HLA-A*02:01, β2m ELISA
Outline: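 Exchange yield, UV-ligand exchange: 100-fold diluted samples on streptavidin plates, 1 h at 37 °C; HRP anti-β2m 1 h at 37 °C; TMB read at 450 nm.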

Substance	Peptide Exchange (MHC class I binding score, peptide exchange yield)
216 (WLAGDVPAA; listed as Homo sapiens) [compound 216]	“+++” (≥50 = +++)
217 (ALDEPPYLTV; listed as Homo sapiens) [compound 217]	“+++” (≥50 = +++)
218 (ALGEEWKGYVV; listed as Homo sapiens) [compound 218]	“++” (≥20% = ++)
219 (ALLNLLESA; listed as Homo sapiens) [compound 219]	“+++” (≥50 = +++)
221 (ALVSTIIMV; listed as Homo sapiens) [compound 221]	“+” (≥10% = +)
222 (ALWELSLKI; listed as Homo sapiens) [compound 222]	“+++” (≥50 = +++)
223 (ALWVSQPPEI; listed as Homo sapiens) [compound 223]	“+++” (≥50 = +++)
224 (AMEALVVEV; listed as Homo sapiens) [compound 224]	“+++” (≥50 = +++)
225 (ILQERELLPV; listed as Homo sapiens) [compound 225]	“+++” (≥50 = +++)
226 (AMNISVPQV; listed as Homo sapiens) [compound 226]	“+++” (≥50 = +++)
227 (FLAEASVMTQL; listed as Homo sapiens) [compound 227]	“+++” (≥50 = +++)
228 (FLGGLSPGV; listed as Homo sapiens) [compound 228]	“+++” (≥50 = +++)
229 (FLLNLQNCHL; listed as Homo sapiens) [compound 229]	“++++” (≥75% = ++++)
230 (FLQDSKVIFV; listed as Homo sapiens) [compound 230]	“+++” (≥50 = +++)
231 (FLYIRQLAI; listed as Homo sapiens) [compound 231]	“+++” (≥50 = +++)
232 (FMHQIIDQV; listed as Homo sapiens) [compound 232]	“++++” (≥75% = ++++)
233 (GIIDINVRL; listed as Homo sapiens) [compound 233]	“++” (≥20% = ++)
234 (GLDDAEYAL; listed as Homo sapiens) [compound 234]	“++” (≥20% = ++)
235 (GLDDLLLFL; listed as Homo sapiens) [compound 235]	“+++” (≥50 = +++)
236 (GLLESGRHYL; listed as Homo sapiens) [compound 236]	“+++” (≥50 = +++)
237 (GLQENLDVVV; listed as Homo sapiens) [compound 237]	“++++” (≥75% = ++++)
238 (GLVETELQL; listed as Homo sapiens) [compound 238]	“+++” (≥50 = +++)
239 (ILAGEMLSV; listed as Homo sapiens) [compound 239]	“+++” (≥50 = +++)
241 (ILGDILLKV; listed as Homo sapiens) [compound 241]	“+++” (≥50 = +++)
242 (ILLGIQELL; listed as Homo sapiens) [compound 242]	“+++” (≥50 = +++)
243 (ILPTLEKELFL; listed as Homo sapiens) [compound 243]	“+++” (≥50 = +++)
244 (ILQALAVHL; listed as Homo sapiens) [compound 244]	“+++” (≥50 = +++)
245 (KIMDYSLLLGV; listed as Homo sapiens) [compound 245]	“++++” (≥75% = ++++)
246 (KLDETGVAL; listed as Homo sapiens) [compound 246]	“++” (≥20% = ++)

More lines, now with the values ahead:

Peptide Exchange (MHC class I binding score, peptide exchange yield)	Substance
“++” (≥20% = ++)	247 (KLKDRLPSI; listed as Homo sapiens) [compound 247]
“++” (≥20% = ++)	248 (KTVEPPISQV; listed as Homo sapiens) [compound 248]
“+++” (≥50 = +++)	249 (LLPTGVFQV; listed as Homo sapiens) [compound 249]
“+++” (≥50 = +++)	250 (LLVQEPDGLMV; listed as Homo sapiens) [compound 250]
“+++” (≥50 = +++)	251 (LLYDNVPGA; listed as Homo sapiens) [compound 251]
“+++” (≥50 = +++)	252 (NLLDPGSSYLL; listed as Homo sapiens) [compound 252]
“+++” (≥50 = +++)	253 (NLWSVDGEVTV; listed as Homo sapiens) [compound 253]
“+++” (≥50 = +++)	254 (QLIPKLIFL; listed as Homo sapiens) [compound 254]
“+++” (≥50 = +++)	255 (YLFEEAISM; listed as Homo sapiens) [compound 255]
“+++” (≥50 = +++)	256 (QLLPVSNVVSV; listed as Homo sapiens) [compound 256]
“+++” (≥50 = +++)	258 (RLDYITAEI; listed as Homo sapiens) [compound 258]
“+++” (≥50 = +++)	259 (RLLDEQFAVL; listed as Homo sapiens) [compound 259]
“+++” (≥50 = +++)	260 (SLDDVEGMSV; listed as Homo sapiens) [compound 260]
“+++” (≥50 = +++)	261 (SLVEAQGWLV; listed as Homo sapiens) [compound 261]
“+++” (≥50 = +++)	262 (SLWNAGTSV; listed as Homo sapiens) [compound 262]
“+++” (≥50 = +++)	263 (SQWEDIHVV; listed as Homo sapiens) [compound 263]
“+++” (≥50 = +++)	264 (TILDYINVV; listed as Homo sapiens) [compound 264]
“+++” (≥50 = +++)	265 (TLLADDLEIKL; listed as Homo sapiens) [compound 265]
“++” (≥20% = ++)	266 (TLLDQLDTQL; listed as Homo sapiens) [compound 266]

Peptide Exchange (MHC class I binding score, peptide exchange yield)	Substance
“+++” (≥50 = +++)	267 (TLLDWQDSL; listed as Homo sapiens) [compound 267]
“+++” (≥50 = +++)	268 (TLLQVFHLL; listed as Homo sapiens) [compound 268]
“++” (≥20% = ++)	269 (TLTDEQFLV; listed as Homo sapiens) [compound 269]
“+++” (≥50 = +++)	270 (TVLPVPPLSV; listed as Homo sapiens) [compound 270]
“++” (≥20% = ++)	271 (VIRNIVEAA; listed as Homo sapiens) [compound 271]
“+++” (≥50 = +++)	272 (VLDELPPLI; listed as Homo sapiens) [compound 272]
“+++” (≥50 = +++)	273 (VLGEYSYLL; listed as Homo sapiens) [compound 273]
“+++” (≥50 = +++)	274 (VLLEYHIAYL; listed as Homo sapiens) [compound 274]
“+++” (≥50 = +++)	275 (VLLFIEHSV; listed as Homo sapiens) [compound 275]
“+++” (≥50 = +++)	276 (VLNDGAPNV; listed as Homo sapiens) [compound 276]
“++” (≥20% = ++)	277 (VMILKLPFL; listed as Homo sapiens) [compound 277]
“+++” (≥50 = +++)	278 (YLDDLLPKL; listed as Homo sapiens) [compound 278]
“+++” (≥50 = +++)	279 (YMAPEVVEA; listed as Homo sapiens) [compound 279]
“+++” (≥50 = +++)	280 (YTLDSLYWSV; listed as Homo sapiens) [compound 280]
“+++” (≥50 = +++)	283 (ILQPMDIHV; listed as Homo sapiens) [compound 283]
“++” (≥20% = ++)	284 (LLSAAEPVPA; listed as Homo sapiens) [compound 284]
“++++” (≥75% = ++++)	285 (GVATAGCVNEV; listed as Homo sapiens) [compound 285]
“+++” (≥50 = +++)	286 (FLLEDLSQKL; listed as Homo sapiens) [compound 286]
